Measured values as given in patent US20060115428A1 (MorphoSys, published 2006).
Positions count from the first letter of the chain named. Like-named read-outs stand apart in the source and are kept apart here.

B1: MOR03062 (Fab, V domains shown)
VH: QVQLVESGGGLVQPGGSLRLSCAASGFTFSSYGMHWVRQAPGKGLEWVSVISSSGSYIYYADSVKGRFTISRDNSKNTLYLQMNSLRAEDTAVYYCARNKVGFDVWGQGTLVTVSS
VL: DIALTQPASVSGSPGQSITISCTGTSSDGGGYNTVSWYQQHPGKAPKLMIYYVHKRPSGVSNRFSGSKSGNTASLTISGLQAEDEADYYCQSWDLSVHQVVFGGGTKLTVLG
notes: Fab, L-CDR3 derivative of MOR02715
B2: MOR03255 (Fab, V domains shown)
VH: B1 VH with S53N, S54R, G55S
VL: B1 VL
notes: Fab, H-CDR2 derivative of MOR03062
B3: MOR03252 (Fab, V domains shown)
VH: B1 VH with S53N, S54Y, G55S, S56W, Y57H
VL: B1 VL
notes: as for B2
B4: MOR03064 (Fab, V domains shown)
VH: B1 VH
VL: B1 VL with S96L, V97A, H98P, Q99S
notes: as for B1
B5: MOR03251 (Fab, V domains shown)
VH: B1 VH with S53N, S54M, G55S, S56Y, Y57T
VL: B1 VL
notes: as for B2
B6: MOR03253 (Fab, V domains shown)
VH: B1 VH with S53N, S54M, S56F, Y57E
VL: B1 VL
notes: Fab, H-CDR2 derivative
B7: MOR03257 (Fab, V domains shown)
VH: B1 VH with S53N, S54R, S56N
VL: B1 VL
notes: as for B2
B8: MOR02715 (Fab, V domains shown)
VH: B1 VH
VL: B1 VL with S92A, L95N, S96Q, V97G, H98M, Q99K, V100Y
notes: HuCAL GOLD Fab, VH3/L2
B9: MOR03245 (Fab, V domains shown)
VH: QVQLQESGPGLVKPGETLSLTCTVSGGSISSYYWSWIRQAPGKGLEWIGVIHKWGFTNYNPSLKSRVTISVDTSKNQFSLKLSSVTAADTAVYYCARFFDVWGQGTLVTVSS
VL: DIVLTQPPSVSGAPGQRVTISCSGSSSNIGSNTVRWYQQLPGTAPKLLIYSNNKRPSGVPDRFSGSKSGTSASLAITGLQSEDEADYYCWTGMSYHFVFGGGTKLTVLG
notes: Fab, H-CDR2 derivative of MOR03069

What was measured:
[1] = biological target: recombinant fibronectin domain ED-B (His)6 (human) (UniProt P02751); test: SPR (BIAcore), ED-B immobilised on chip
[2] = biological target: recombinant fibronectin domain ED-B (His)6 (human) (UniProt P02751); test: SPR (BIAcore), ED-B immobilised on chip; remark: listed apart in the source
[3] = biological target: recombinant fibronectin domain ED-B (His)6 (human) (UniProt P02751); test: SPR (BIAcore), ED-B immobilised on chip; remark: listed apart in the source
[4] = biological target: T1, recombinant fibronectin domain ED-B (His)6 (human, UniProt P02751 1266-1356); test: SPR (BIAcore); ratio to parent clone MOR02715
T1 construct: domain: ED-B; Produced by standard procedures; immobilised on ELISA plates or on the BIAcore chip; also called recombinant ED-B; human ED-B
Method: (§1) F1-Chips (Biacore, Sweden) were coated with about 200 RU of ED-B (30 μg/ml, 10 mmol of acetate buffer, pH 4.0) and reference flow cells with a corresponding amount of human serum albumin (20 μg/ml, 10 mmol of acetate buffer, pH 4.5) with use of standard EDC-NHS-amine-coupling chemistry. The antigen density was reduced to about 100 RU for the Fab characterization of the second maturation. The regeneration was carried out with 10 mmol of HCl. All kinetic measurements were carried out in PBS buffer (136 mmol of NaCl, 2.7 mmol of KCl, 10 mmol of Na₂HPO₄, 1.76 mmol of KH₂PO₄, pH 7.4) with a flow rate of 20 μl/minute with use of a Fab concentration range of 1.5-500 nmol. The injection period was 1 minute in each case. All sensograms were evaluated with use of BIA evaluation software 3.1.

[5] = biological target: T1, recombinant fibronectin domain ED-B …; test: SPR (BIAcore), ED-B immobilised on chip, Fab in flow
Method: as §1

[6] = biological target: T2, recombinant fibronectin domain 7-8-9 (without ED-B) (UniProt P02751-1 1173-1446, limits assumed); test: specificity ELISA on immobilised recombinant domain 7-8-9
T2 construct: domain: fibronectin domains 7-8-9 (without ED-B)

[7] = biological target: T1, recombinant fibronectin domain ED-B …; test: SPR (BIAcore), ED-B immobilised on chip (about 100 RU), Fab in flow
Method: as §1

[8] = biological target: T3, recombinant fibronectin domain 6 (UniProt P02751 1086-1172, limits assumed); test: specificity ELISA on immobilised recombinant fibronectin domain 6
T3 construct: domain: fibronectin domain 6; also called 6FN; 6-FN

[9] = biological target: T1, recombinant fibronectin domain ED-B …; test: SPR (BIAcore), ED-B immobilised on chip, Fab in flow; remark: listed apart in the source
Method: as §1
The properties of twelve selected binding molecules was determined by BIAcore analysis (see Table 1). […] At least two independent measurements with Fab molecules from different batches were performed for protein expression and protein purification. The binding rate (Kₒₙ) and the dissociating-off rate (Koff) of the Fab molecule are indicated in separate columns.

[10] = biological target: T2, recombinant fibronectin domain 7-8-9 …; test: specificity ELISA on immobilised recombinant domain 7-8-9; remark: listed apart in the source
[11] = biological target: T3, recombinant fibronectin domain 6; test: specificity ELISA on immobilised recombinant fibronectin domain 6; remark: listed apart in the source

Molecule | Kd [5] | koff [5] | kon [5] | binding result [6] | Kd [7] | koff [7] | kon [7] | binding result [8] | also measured
AP39, covalent dimer of the anti-ED-B scFv antibody L19 |  |  |  |  |  |  |  |  | koff [1]: 0.0015 s⁻¹; Kd [2]: 2.4 nM; koff [2]: 0.00149 s⁻¹; kon [2]: 660000 M⁻¹ s⁻¹; kon [3]: 675000 M⁻¹ s⁻¹
B1 | 3.4 nM | 0.011 s⁻¹ | 3.5e+06 M⁻¹ s⁻¹ |  |  |  |  |  | x-Fold Improvement Relative to the Parent Clone, KD [4]: 15.8 fold; x-Fold Improvement Relative to the Parent Clone, Koff [4]: 4.2 fold; x-Fold Improvement Relative to the Parent Clone, Kon [4]: 4 fold
B2 |  |  |  | no binding | 0.03 nM | 8.6e-05 s⁻¹ | 4.9e+06 M⁻¹ s⁻¹ | no binding | 
B3 |  |  |  | no binding | 0.03 nM | 6.1e-05 s⁻¹ | 3.1e+06 M⁻¹ s⁻¹ | no binding | 
B4 | 10 nM | 0.014 s⁻¹ | 1.5e+06 M⁻¹ s⁻¹ |  |  |  |  |  | x-Fold Improvement Relative to the Parent Clone, KD [4]: 5.3 fold; x-Fold Improvement Relative to the Parent Clone, Koff [4]: 3.5 fold; x-Fold Improvement Relative to the Parent Clone, Kon [4]: 1.7 fold
B5 |  |  |  | no binding | 0.07 nM | 0.0002 s⁻¹ | 3.3e+06 M⁻¹ s⁻¹ | no binding | 
B6 |  |  |  | no binding | 0.13 nM | 0.0002 s⁻¹ | 1.6e+06 M⁻¹ s⁻¹ | no binding | 
B7 |  |  |  | no binding | 0.08 nM | 0.0003 s⁻¹ | 5.3e+06 M⁻¹ s⁻¹ | no binding | 
B8 | 53.7 nM | 0.047 s⁻¹ | 990000 M⁻¹ s⁻¹ |  |  |  |  |  | Kd [9]: 53.7 nM; koff [9]: 0.047 s⁻¹; kon [9]: 890000 M⁻¹ s⁻¹; binding result [10]: no binding; binding result [11]: no binding
B9 |  |  |  | no binding | 0.7 nM | 0.0016 s⁻¹ | 3.5e+06 M⁻¹ s⁻¹ | no binding | 
